# Measured values reported in patent publication US20050100897A1, “NFAT transcription factors in tumor progression” (priority 2002, published 2005).
# What was measured:
# Format in all cases: cell-based, human
# [1] = system: Clone A colon cancer cell line; experiment: Matrigel chemoinvasion assay, Clone A cells; details: transient transfection
# Procedure: Invasion assays were performed using standard methods (see Shaw et al., Cell 91:949-960, 1997) using Transwell chambers coated with Matrigel. Briefly, cells were co-transfected with the indicated NFAT constructs, 1 μg EGFP-N1 (Clontech) and 1 μg pCS2-(n)β-Gal, a •gal expression vector (Dave Turner, University of Michigan) using the Lipofectamine procedure (Life Technologies), and after twenty-four hours, the cells were resuspended in serum-free medium containing 0.1% bovine serum albumin (BSA) and added to each well. […] Cells that stained positive for β-galactosidase expression were counted, and the mean of triplicate assays for each experimental condition was used as % relative invasion.
# [2] = system: parental MDA-MB-435 β4-negative cells; experiment: Matrigel invasion assay, parental MDA-MB-435 cells; details: transient transfection, parental MDA-MB-435 (no α6β4)
# Procedure: (§1) FIGS. 5A-5B are graphs and immunoblots showing the effects of NFAT1 and NFAT5 over expression on transfected cells. Parental MDA-MB-435 β4-negative cells were transiently transfected with wild-type NFAT-1 (FIG. 5A) tagged with the HA epitope (NFAT-1) or with wild-type NFAT-5 (FIG. 5B) tagged with the myc epitope (NFAT-5) or control vector alone (vector). Following the transfection protocol, cells were assayed for their ability to migrate or to invade Matrigel. Relative migration/invasion were determined by comparing the amount of migration/invasion obtained from NFAT transfectants to that obtained from cells transfected with vector alone, which was assigned a value of 100%. An aliquot of transfected cells was lysed and nuclear extracts were resolved by SDS PAGE and immunoblotted with anti-HA or anti-myc. The data shown are mean values (±SEM) of 3 experiments performed in triplicate.
# (§2) Invasion assays were performed using standard methods (see Shaw et al., Cell 91:949-960, 1997) using Transwell chambers coated with Matrigel. […] Cells that stained positive for β-galactosidase expression were counted, and the mean of triplicate assays for each experimental condition was used as % relative invasion. […]
# [3] = system: parental MDA-MB-435 cells; experiment: Chemotactic migration assay (Transwell without Matrigel), parental MDA-MB-435; details: transient transfection; conditioned media present, no Matrigel
# Procedure: as §1
# Increased cell migration was intimately linked with carcinoma invasion. […]
# as §2
molecule,measurement,setting,value
"DBD5: NFAT-5 dominant negative mutant comprising amino acids 175-471 (SEQ ID NO:14) of NFAT5a (protein, listed as Homo sapiens) GNGTLENQKGTGVKKSPMLCGQYPVKSEGKELKIVVQPETQHRARYLTEGSRGSVKDRTQQGFPTVKLEGHNEPVVLQVFVGNDSGRVKPHGFYQACRVTGRNTTPCKEVDIEGTTVIEVGLDPSNNMTLAVDCVGILKLRNADVEARIGIAGSKKKSTRARLVFRVNIMRKDGSTLTLQTPSSPILCTQPAGVPEILKKSLHSCSVKGEEEVFLIGKNFLKGTKVIFQENVSDENSWKSEAEIDMELFHQNHLIVKVPPYHDQHITLPVSVGIYVVTNAGRSHDVQPFTYTPDPAA",carcinoma invasion (relative invasion vs vector alone),[1],also inhibited invasion
"wild-type NFAT-1: wild-type NFAT-1 tagged with the HA epitope, transiently overexpressed (protein) MNAPERQPQPDGGDAPGHEPGGSPQDELDFSILFDYEYLNPNEEEPNAHKVASPPSGPAYPDDVMDYGLKPYSPLASLSGEPPGRFGEPDRVGPQKFLSAAKPAGASGLSPRIEITPSHELIQAVGPLRMRDAGLLVEQPPLAGVAASPRFTLPVPGFEGYREPLCLSPASSGSSASFISDTFSPYTSPCVSPNNGGPDDLCPQFQNIPAHYSPRTSPIMSPRTSLAEDSCLGRHSPVPRPASRSSSPGAKRRHSCAEALVALPPGASPQRSRSPSPQPSSHVAPQDHGSPAGYPPVAGSAVIMDALNSLATDSPCGIPPKMWKTSPDPSPVSAAPSKAGLPRHIYPAVEFLGPCEQGERRNSAPESILLVPPTWPKPLVPAIPICSIPVTASLPPLEWPLSSQSGSYELRIEVQPKPHHRAHYETEGSRGAVKAPTGGHPVVQLHGYMENKPLGLQIFIGTADERILKPHAFYQVHRITGKTVTTTSYEKIVGNTKVLEIPLEPKNNMRATIDCAGILKLRNADIELRKGETDIGRKNTRVRLVFRVHIPESSGRIVSLQTASNPIECSQRSAHELPMVERQDTDSCLVYGGQQMILTGQNFTSESKVVFTEKTTDGQQIWEMEATVDKDKSQPNMLFVEIPEYRNKHIRTPVKVNFYVINGKRKRSQPQHFTYHPVPAIKTEPTDEYDPTLICSPTHGGLGSQPYYPQHPMVAESPSCLVATMAPCQQFRTGLSSPDARYQQQNPAAVLYQRSKSLSPSLLGYQQPALMAAPLSLADAHRSVLVHAGSQGQSSALLHPSPTNQQASPVIHYSPTNQQLRCGSHQEFQHIMYCENFAPGTTRPGPPPVSQGQRLSPGSYPTVIQQQNATSQRAAKNGPPVSDQKEVLPAGVTIKQEQNLDQTYLDDELIDTHLSWIQNIL",carcinoma invasion,[2],also induced carcinoma invasion
same,chemotactic migration,[3],sufficient to increase chemotactic migration
"wild-type NFAT-5: wild-type NFAT-5 tagged with the myc epitope, transiently overexpressed (protein) MSQTSGGEAGSPPPAVVAADASSAPSSSSMGGACSSFTTSSSPTIYSTSVTDSKAMQVESCSSAVGVSNRGVSEKQLTSNTVQQHPSTPKRHTVLYISPPPEDLLDNSRMSCQDEGCGLESEQSCSMWMEDSPSNFSNMSTSSYNDNTEVPRKSRKRNPKQRPGVKRRDCEESNMDIFDADSAKAPHYVLSQLTTDNKGNSKAGNGTLENQKGTGVKKSPMLCGQYPVKSEGKELKIVVQPETQHRARYLTEGSRGSVKDRTQQGFPTVKLEGHNEPVVLQVFVGNDSGRVKPHGFYQACRVTGRNTTPCKEVDIEGTTVIEVGLDPSNNMTLAVDCVGILKLRNADVEARIGIAGSKKKSTRARLVFRVNIMRKDGSTLTLQTPSSPILCTQPAGVPEILKKSLHSCSVKGEEEVFLIGKNFLKGTKVIFQENVSDENSWKSEAEIDMELFHQNHLIVKVPPYHDQHITLPVSVGIYVVTNAGRSHDVQPFTYTPDPAAAGALNVNVKKEISSPARPCSFEEAMKAMKTTGCNLDKVNIIPNALMTPLIPSSMIKSEDVTPMEVTAEKRSSTIFKTTKSVGSTQQTLENISNIAGNGSFSSPSSSHLPSENEKQQQIQPKAYNPETLTTIQTQDISQPGTFPAVSASSQLPNSDALLQQATQFQTRETQSREILQSDGTVVNLSQLTEASQQQQQSPLQEQAQTLQQQISSNIFPSPNSVSQLQNTIQQLQAGSFTGSTASGSSGSVDLVQQVLEAQQQLSSVLFSAPDGNENVQEQLSADIFQQVSQIQSGVSPGMFSSTEPTVHTRPDNLLPGRAESVHPQSENTLSNQQQQQQQQQQVMESSAAMVMEMQQSICQAAAQIQSELFPSTASANGNLQQSPVYQQTSHMMSALSTNEDMQMQCELFSSPPAVSGNETSTTTTQQVATPGTTMFQTSSSGDGEETGTQAKQIQNSVFQTMVQMQHSGDNQPQVNLFSSTKSMMSVQNSGTQQQGNGLFQQGNEMMSLQSGNFLQQSSHSQAQLFHPQNPIADAQNLSQETQGSLFHSPNPIVHSQTSTTSSEQMQPPMFHSQSTIAVLQGSSVPQDQQSTNIFLSQSPMNNLQTNTVAQEAFFAAPNSISPLQSTSNSEQQAAFQQQAPISHIQTPMLSQEQAQPPQQGLFQPQVALGSLPPNPMPQSQQGTMFQSQHSIVAMQSNSPSQEQQQQQQQQQQQQQQQQQSILFSNQNTMATMASPKQPPPNMIFNPNQNPMANQEQQNQSIFHQQSNMAPMNQEQQPMQFQSQSTVSSLQNPGPTQSESSQTPLFHSSPQIQLVQGSPSSQEQQVTLFLSPASMSALQTSINQQDMQQSPLYSPQNNMPGIQGATSSPQPQATLFHNTAGGTMNQLQNSPGSSQQTSGMFLFGIQNNCSQLLTSGPATLPDQLMAISQPGQPQNEGQPPVTTLLSQQMPENSPLASSINTNQNIEKIDLLVSLQNQGNNLTGSF",carcinoma invasion,[2],this was not observed
same,chemotactic migration,[3],sufficient to increase chemotactic migration
